The text below walks through data of the supplement of paper PMC9112550, “Optimization of the antimicrobial peptide Bac7 by deep mutational scanning” (BMC Biology, 2022).
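Further: peptides expressed intracellularly from a pBAD plasmid library in pooled LB shake-flask culture, induced with 0.3% L-arabinose, DNA abundance read by NGS, three biological replicates, DESeq2 with apeglm shrinkage.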

In the series the test system is Escherichia coli TOP10. The experiment in a line: shrunken log2 fold change of peptide-encoding DNA abundance (4.5 h post-induction vs induction); higher = less antimicrobial activity (less host growth inhibition). Particulars: time post-induction: 4.5 h; library: site-saturation at positions 5, 18, 19, 20.
Take RRIRWRPPRLPRPRPRPTQDPRP: the “shrunken log2 fold change” value turned out to be 0.755. The result for RRIRGRPPRLPRPRPRPRYAPRP reads 0.399; that for RRIRCRPPRLPRPRPRPTHGPRP, 0.000601; that for RRIRPRPPRLPRPRPRPGRAPRP, 0.549. The result for RRIRKRPPRLPRPRPRPKIMPRP reads 0.193; that for RRIRIRPPRLPRPRPRPWWMPRP, -0.0772. In the case of RRIRDRPPRLPRPRPRPFIHPRP it was -0.572; in that of RRIRWRPPRLPRPRPRPMVIPRP, -0.14. RRIRRRPPRLPRPRPRPMQYPRP: the “shrunken log2 fold change” value was -0.126. RRIRMRPPRLPRPRPRPSKLPRP: the “shrunken log2 fold change” value is -0.0679. On to RRIRNRPPRLPRPRPRPLECPRP, for which the “shrunken log2 fold change” value is -0.311. Take RRIRPRPPRLPRPRPRPTSRPRP: the “shrunken log2 fold change” value was -0.0592. Take RRIRNRPPRLPRPRPRPFIEPRP: the “shrunken log2 fold change” value was -0.412. RRIRVRPPRLPRPRPRPNHSPRP: the “shrunken log2 fold change” value is -0.632. As to RRIRVRPPRLPRPRPRPIKPPRP, the “shrunken log2 fold change” value was -0.15. The result for RRIRRRPPRLPRPRPRPQWFPRP reads -0.076; that for RRIRWRPPRLPRPRPRPTNTPRP, -0.284; that for RRIRFRPPRLPRPRPRPADLPRP, -0.294. RRIRIRPPRLPRPRPRPLSVPRP: the “shrunken log2 fold change” value is -0.254.

With RRIRDRPPRLPRPRPRPLMMPRP, the “shrunken log2 fold change” value was found to be 0.0576.

Consider RRIRWRPPRLPRPRPRPKTTPRP, for which the “shrunken log2 fold change” value is -0.0128. As to RRIRGRPPRLPRPRPRPRAWPRP, the “shrunken log2 fold change” value amounted to 1.31. Turning to RRIRYRPPRLPRPRPRPRAKPRP, the “shrunken log2 fold change” value worked out at 0.404. As for RRIRLRPPRLPRPRPRPSGKPRP, the “shrunken log2 fold change” value is 0.19. On to RRIRIRPPRLPRPRPRPWHEPRP, for which the “shrunken log2 fold change” value came out at 0.0173. For the sequence RRIRERPPRLPRPRPRPHMAPRP, the “shrunken log2 fold change” value is -0.0803.

As to RRIRTRPPRLPRPRPRPYEWPRP, the “shrunken log2 fold change” value was -0.139. RRIRGRPPRLPRPRPRPNKRPRP: the “shrunken log2 fold change” value is 0.26. Consider RRIRRRPPRLPRPRPRPSAEPRP, for which the “shrunken log2 fold change” value was 0.716. For the sequence RRIRRRPPRLPRPRPRPDLHPRP, the “shrunken log2 fold change” value amounted to 0.308. For the sequence RRIRPRPPRLPRPRPRPTARPRP, the “shrunken log2 fold change” value was found to be 0.352. For RRIRVRPPRLPRPRPRPPYDPRP, the “shrunken log2 fold change” value is -0.0602. In the case of RRIRWRPPRLPRPRPRPFSSPRP, the “shrunken log2 fold change” value is -0.374. As to RRIRNRPPRLPRPRPRPTVTPRP, the “shrunken log2 fold change” value stood at 0.354. Consider RRIRERPPRLPRPRPRPGMFPRP, for which the “shrunken log2 fold change” value was -0.837. Consider RRIRHRPPRLPRPRPRPKHPPRP, for which the “shrunken log2 fold change” value was -0.0271. For the sequence RRIRMRPPRLPRPRPRPVTFPRP, the “shrunken log2 fold change” value is -0.0159.

Take RRIRARPPRLPRPRPRPDGHPRP: the “shrunken log2 fold change” value turned out to be 0.0106. As for RRIRLRPPRLPRPRPRPWWYPRP, the “shrunken log2 fold change” value is -0.227. For the sequence RRIRVRPPRLPRPRPRPPCWPRP, the “shrunken log2 fold change” value came to 0.422. Regarding RRIRARPPRLPRPRPRPRTEPRP, the “shrunken log2 fold change” value amounted to 0.391. For RRIRRRPPRLPRPRPRPCTVPRP, the “shrunken log2 fold change” value was -0.0302. As to RRIRNRPPRLPRPRPRPGYYPRP, the “shrunken log2 fold change” value is -0.851. As for RRIRRRPPRLPRPRPRPWDIPRP, the “shrunken log2 fold change” value amounted to 0.0194.

On to RRIRERPPRLPRPRPRPVHTPRP, for which the “shrunken log2 fold change” value is -0.00346. Take RRIRMRPPRLPRPRPRPFMRPRP: the “shrunken log2 fold change” value came out at 0.345.

On to RRIRCRPPRLPRPRPRPMNCPRP, for which the “shrunken log2 fold change” value was -0.0537. The result for RRIRRRPPRLPRPRPRPVLKPRP reads 0.267; that for RRIRQRPPRLPRPRPRPFGSPRP, -0.156. In the case of RRIRTRPPRLPRPRPRPRAAPRP it was 0.385; in that of RRIRDRPPRLPRPRPRPNNFPRP, -0.418; in that of RRIRCRPPRLPRPRPRPSCAPRP, -0.0944. In the case of RRIRDRPPRLPRPRPRPIKLPRP it was -0.213. In the case of RRIRQRPPRLPRPRPRPDPTPRP, the “shrunken log2 fold change” value amounted to 0.119.

With RRIRLRPPRLPRPRPRPMGMPRP, the “shrunken log2 fold change” value was determined as 0.0771. The result for RRIRIRPPRLPRPRPRPKTMPRP reads -0.198. Turning to RRIRNRPPRLPRPRPRPPWIPRP, the “shrunken log2 fold change” value was -0.0807. The result for RRIRWRPPRLPRPRPRPGCNPRP reads -0.0626. The result for RRIRTRPPRLPRPRPRPTNIPRP reads -0.519; that for RRIRMRPPRLPRPRPRPPRNPRP, 1.27. As for RRIRIRPPRLPRPRPRPGYSPRP, the “shrunken log2 fold change” value was -0.525. Consider RRIRDRPPRLPRPRPRPAKEPRP, for which the “shrunken log2 fold change” value was found to be 0.0263. In the case of RRIRCRPPRLPRPRPRPHWTPRP it was -0.226; in that of RRIRCRPPRLPRPRPRPQMIPRP, -1.55. Regarding RRIRARPPRLPRPRPRPCCYPRP, the “shrunken log2 fold change” value was determined as 0.0589. For RRIRERPPRLPRPRPRPFDYPRP, the “shrunken log2 fold change” value was found to be 0.155.

For RRIRMRPPRLPRPRPRPSDRPRP, the “shrunken log2 fold change” value was determined as 0.0714.

RRIRMRPPRLPRPRPRPPQGPRP: the “shrunken log2 fold change” value came to 0.834.

Consider RRIRSRPPRLPRPRPRPFTWPRP, for which the “shrunken log2 fold change” value was -0.24. Regarding RRIRARPPRLPRPRPRPLNVPRP, the “shrunken log2 fold change” value was -0.234.

On to RRIRERPPRLPRPRPRPIAFPRP, for which the “shrunken log2 fold change” value was 0.0152. Regarding RRIRRRPPRLPRPRPRPCWIPRP, the “shrunken log2 fold change” value came out at 0.063. With RRIRWRPPRLPRPRPRPNLWPRP, the “shrunken log2 fold change” value worked out at 0.587. For RRIRGRPPRLPRPRPRPERNPRP, the “shrunken log2 fold change” value came to 0.855.

For RRIRCRPPRLPRPRPRPNFAPRP, the “shrunken log2 fold change” value is -0.098. As for RRIRNRPPRLPRPRPRPQCNPRP, the “shrunken log2 fold change” value is -0.468. Take RRIRVRPPRLPRPRPRPLGSPRP: the “shrunken log2 fold change” value is -0.115. On to RRIRDRPPRLPRPRPRPCTGPRP, for which the “shrunken log2 fold change” value was -0.0116. As for RRIRFRPPRLPRPRPRPHHRPRP, the “shrunken log2 fold change” value was -0.401. With RRIRVRPPRLPRPRPRPPYLPRP, the “shrunken log2 fold change” value was -0.0916. On to RRIRHRPPRLPRPRPRPFEPPRP, for which the “shrunken log2 fold change” value was found to be 0.00846. As for RRIRCRPPRLPRPRPRPKQIPRP, the “shrunken log2 fold change” value was 0.0104. Take RRIRNRPPRLPRPRPRPDDCPRP: the “shrunken log2 fold change” value is -0.108.

With RRIRCRPPRLPRPRPRPVHRPRP, the “shrunken log2 fold change” value was -0.319. With RRIRYRPPRLPRPRPRPDRAPRP, the “shrunken log2 fold change” value is -0.0598. As for RRIRFRPPRLPRPRPRPIICPRP, the “shrunken log2 fold change” value is 0.12. As for RRIRARPPRLPRPRPRPDRIPRP, the “shrunken log2 fold change” value was -0.00136. As for RRIRLRPPRLPRPRPRPLPPPRP, the “shrunken log2 fold change” value stood at 0.678. For the sequence RRIRWRPPRLPRPRPRPWNKPRP, the “shrunken log2 fold change” value stood at 0.087. The result for RRIRRRPPRLPRPRPRPHVTPRP reads -0.154. On to RRIRHRPPRLPRPRPRPHLAPRP, for which the “shrunken log2 fold change” value is -0.0341.
